Experimental data from US10202593B2, “Evolved sortases and uses thereof” (President and Fellows of Harvard College, priority 2013, dated 2019).
Residue numbers refer to the chain shown, from its start. Numbers in names are those of the source.

B1: eSrtA (protein)
chain: QAKPQIPKDKSKVAGYIEIPDADIKEPVYPGPATREQLNRGVSFAEENESLDDQNISIAGHTFIDRPNYQFTNLKAAKKGSMVYFKVGNETRKYKMTSIRNVKPTAVEVLDEQKGKDKQLTLITCDDYNEETGVWETRKIFVATEVK
B2: eSrtA(2A-9): P94R, S102C, A104H, E105D, K138P, K152I, N160K, K162H, T164N, D165A, K173E, I182V, K190E, T196S (protein)
chain: QAKPQIPKDKSKVAGYIEIPDADIKEPVYPGPATREQLNRGVCFHDENESLDDQNISIAGHTFIDRPNYQFTNLKAAKPGSMVYFKVGNETRIYKMTSIRKVHPNAVEVLDEQEGKDKQLTLVTCDDYNEETGVWESRKIFVATEVK
B3: eSrtA(4S-9): P94R, N98D, S102C, A104V, A118T, F122A, K134R, F144L, D160N, D165A, I182V, E189F, K190E, K196T (protein)
chain: B1 chain with N39D, S43C, A45V, A59T, F63A, K75R, F85L, I123V, E130F

What was measured:
[1] = test system: SUMO-TEV site-FGF1-LPESG-His6; experiment: FGF dual labeling / circularization of GGG-FGF-LPESG; assay type: biochemical; settings: 0.2 eq enzyme, 10 or 100 μM Btn-LAETG, 4 hours
Protocol: SUMO-TEV site-FGF1-LPESG-His6 (SEQ ID NO: 27), 0.5 eq TEV protease, and either 0.2 eq eSrtA or eSrtA(2A-9) were incubated in the presence of 10 or 100 μM Btn-LAETG (SEQ ID NO: 5) for 4 hours. The protein contains a GGG near its N-terminus masked by a TEV protease cleavage site, and a LPESG (SEQ ID NO: 3) near its C-terminus to serve as a substrate for downstream conjugation. In situ digestion of the TEV cleavage site exposes an N-terminal GGG, which in theory can serve as the substrate for subsequent conjugation with an LAETG-containing peptide (SEQ ID NO: 5). […] His6: SEQ ID NO: 6.
SUMO-TEV-FGF-LPESG-His6 (SEQ ID NO: 27) conjugates were treated with 0.2 eq eSrtA(4S-9), 1 mM GGG-PEG and 10 mM CaCl2 in TBS and incubated at room temperature at 500 μL final volumes. These samples were then quenched by the addition of 100 μM H2N-LPESGG (SEQ ID NO: 38) peptide and 100 μL of pre-equilibrated Ni-NTA resin slurry in TBS, then incubated on ice for 15 minutes. This mixture was then passed through a 0.2 μm spin filter, diluted 1:10 into PBS+10 μM H2N-LPESGG (SEQ ID NO: 38) peptide, and concentrated against a 10 kDa MWCO spin concentrator to a final volume of 400 μL. This process was repeated five times to afford the crude SUMO-TEV-FGF-LPESGGG-PEG (SEQ ID NO: 39) conjugates. […] Protein concentrations were determined by BCA assay. […]

Abz-LXEXGK(Dnp) peptides = experiment: Enzyme specificity assay (percent substrate conversion by HPLC); assay type: biochemical
Protocol: (A, D) For each of eSrtA, eSrtA(2A-9), and eSrtA(4S-9), we incubated an activity matched quantity of enzyme (47.5 nM eSrtA, 450 nM eSrtA(2A-9), 115 nM eSrtA(4S-9)) with 10 μM Abz-LXEXGK(Dnp) (SEQ ID NO: 33) and 100 mM Gly-Gly-Gly peptide as listed for 15 minutes. Percent substrate conversion was monitored by reverse phase HPLC analysis and UV absorbance at 355 nm. […] LPEXG: SEQ ID NO: 34.
Assays to determine eSrtA, eSrtA(2A-9) and eSrtA(4S-9) specificity were performed by preparing 10 μM stocks of Abz-LXEXGK(Dnp) (SEQ ID NO: 75) peptides in 300 mM Tris pH 7.5, 150 mM NaCl, 5 mM CaCl2, 5% v/v DMSO, and 100 mM Gly-Gly-Gly-COOH (GGG). Reactions were performed by adding eSrtA(2A-9) to a final concentration of 450 nM, eSrtA(4S-9) to a final concentration of 115 nM or eSrtA to a final concentration of 47.5 nM and a final volume of 100 μL, then incubating at 22.5° C. for 15 minutes. Reactions were quenched by the addition of 0.2 volumes of 5 M HCl, then were injected onto an analytical reverse-phase Eclipse XDB-C18 HPLC column (4.6×150 mm, 5 μm, Agilent Technologies) and chromatographed using a gradient of 10 to 65% acetonitrile with 0.1% TFA in 0.1% aqueous TFA over 13 minutes. Retention times under these conditions for the Abz-LPETGK(Dnp)-CONH2 (SEQ ID NO: 19) substrate, the released GKDnp peptide, and the Abz-LPETGGG-COOH (SEQ ID NO: 20) product were 12.8, 10.4, and 9.1 min, respectively, while the remaining Abz-LXEXGK(Dnp)-CONH2 (SEQ ID NO: 74) substrates varied in retention time between 9 and 13 minutes. To calculate the percent conversion, the ratio of the integrated areas of the GK(Dnp)-CONH2 and Abz-LPETGK(Dnp)-CONH2 (SEQ ID NO: 19) peptide Abs355 peaks were compared directly. Subsequent determination of kcat/Km and KH were performed as described for in vitro SrtA characterization.

Molecule | circularization of GGG-FGF-LPESG [1] | reduced activity on the next most active substrates, LSETG and LRETG, versus LAETG (Abz-LXEXGK(Dnp) peptides; position 2 substrate profile, FIG. 20E) [fold] | difference in transpeptidation of LPESG over LPETG (Abz-LXEXGK(Dnp) peptides; FIG. 20A, 10 μM peptide, 100 mM GGG, 15 minutes) | activity on the substrates LPEAG, LPECG and LPESG (Abz-LXEXGK(Dnp) peptides; position 4 substrate profile, FIGS. 20A-B)
B1 | resulting in circularization | – | – | –
B2 | does not generate detectable levels of circularized GGG-FGF protein | > 20 | – | –
B3 | – | – | approximately 40 fold | significant activity
